B2: sFGFR3_Del4-D3 (receptor)
chain: ESLGTEQRVVGRAAEVPGPEPGQQEQLVFGSGDAVELSCPPPGGGPMGPTVWVKDGTGLVPSERVLVGPQRLQVLNASHEDSGAYSCRQRLTQRVLCHFSVRVTDAPSSGDDEDGEDEAEDTGVDTGAPYWTRPERMDKKLLAVPAANTVRFRCPAAGNPTPSISWLKNGREFRGEHRIGGIKLRHQQWSLVMESVVPSDRGNYTCVVENKFGSIRQTYTLDVLERSPHRPILQAGLPANQTAVLGSDVEFHCKVYSDAQPHIQWLKHVEVNGSKVGPDGTPYVTVLKTAGANTTDKELEVLSLHNVTFEDAGEYTCLAGNSIGFSHHSAWLVVLPVSLESNASMSSNT
notes: Secreted form without signal peptide; also called sFGFR3_Del4 with extended Ig-like C2-type domain 3

For assay [1], the target named is B2. As to the kind of experiment: SPR (Biacore T200), immobilised sFGFR3_Del4-D3, kinetic fit, 2:1 model. (In general: SPR reads the build-up and loss of mass on a sensor chip optically.)
In assay [2] the target is B2. As to the kind of experiment: SPR (Biacore T200), immobilised sFGFR3_Del4-D3, FGF as analyte, 2:1 (conformational change) model, kd2.
The target in assay [3] is B2. Kind of assay: SPR (Biacore T200), immobilised sFGFR3_Del4-D3, FGF as analyte, 2:1 (conformational change) model, kd1.
Assay [4] has as its target B2. As to the kind of experiment: SPR (Biacore T200), immobilised sFGFR3_Del4-D3, FGF as analyte, 2:1 (conformational change) model, ka1.
In assay [5] the target is T1, human FGF9 (human, UniProt P31371 4-208). Kind of assay: SPR (Biacore T200), immobilised sFGFR3_Del4-D3, kinetic fit, 2:1 model.
The target in assay [6] is T1, human FGF9. Kind of assay: SPR (Biacore T200), immobilised sFGFR3_Del4-D3, steady state.
In assay [7] the target is T1, human FGF9. Kind of assay: SPR (Biacore T200), immobilised sFGFR3_Del4-D3, FGF as analyte, 2:1 (conformational change) model, kd1.
Assay [8] has as its target T1, human FGF9. As to the kind of experiment: SPR (Biacore T200), immobilised sFGFR3_Del4-D3, FGF as analyte, 2:1 (conformational change) model, ka1.
For assay [9], the target named is B2. As to the kind of experiment: SPR (Biacore T200), immobilised sFGFR3_Del4-D3, steady state.
Assay [10] deals with B2. As to the kind of experiment: SPR (Biacore T200), immobilised sFGFR3_Del4-D3, kinetic fit, 1:1 model.
The target in assay [11] is B2. As to the kind of experiment: SPR (Biacore T200), immobilised sFGFR3_Del4-D3, FGF as analyte, 1:1 model, ka1.

B1: human FGF21 (ligand)
chain: HPIPDSSPLLQFGGQVRQRYLYTDDAQQTEAHLEIREDGTVGGAADQSPESLLQLKALKPGVIQILGVKTSRFLCQRPDGALYGSLHFDPEACSFRELLLEDGYNVYQSEAHGLPLHLPGNKSPHRDPAPRGPARFLPLPGLPPALPEPPGILAPQPPDVGSSDPLSMVGPSQGRSPSYAS
notes: also called hFGF21; fibroblast growth factor 21
One may read the Kd as the concentration at which binding is half-saturated. Broadly, the koff is the first-order rate constant of dissociation. A higher koff goes with fast dissociation. The term kon denotes the rate constant with which the complex forms. Higher therefore signals faster complex formation. B1 yielded a Kd in the assay with sFGFR3_Del4-D3 [1] of 28000 nM. In the assay with sFGFR3_Del4-D3 [2], this molecule gave a kd2 of 0.0014 s⁻¹. The koff with sFGFR3_Del4-D3 [3] was determined as 0.0055 s⁻¹. This molecule returned a kon with sFGFR3_Del4-D3 [4] of 258 M⁻¹ s⁻¹.

As to B2, the values for the Kd with human FGF9 [5] and in the assay with human FGF9 [6] were 1.8 nM and 3.6 nM, respectively. Besides, the koff in the assay with human FGF9 [7] was 0.026 s⁻¹. This molecule registered a kon in the assay with human FGF9 [8] of 2.3e+06 M⁻¹ s⁻¹.

B3: human FGF18 (ligand)
chain: EENVDFRIHVENQTRARDDVSRKQLRLYQLYSRTSGKHIQVLGRRISARGEDGDKYAQLLVETDTFGSQVRIKGKETEFYLCMNRKGKLVGKPDGTSKECVFIEKVLENNYTALMSAKYSGWYVGFTKKGRPRKGPKTRENQQDVHFMKRYPKGQPELQKPFKYTTVTKRSRRIRPTHPA
notes: also called hFGF18; fibroblast growth factor 18
As for B3, the Kd stood at 6.4 nM in the assay with sFGFR3_Del4-D3 [9] and 4.5 nM in the assay with sFGFR3_Del4-D3 [10]. The kon with sFGFR3_Del4-D3 [11] came out at 200000 M⁻¹ s⁻¹.

(Values after patent US20210309718A1 (THERACHON, published 2021).)
